Results reported in patent US20170290892A1, “POLYMERIC […]” (PEG BIOSCIENCES, INC., priority 2014, published 2017).

Experiment: Degradation of 20K OGF-PEG ester conjugate and release of OGF in human plasma at 37 °C
Assay type: in vitro ADME
Settings: incubated in human plasma at 37 °C, 0.5 to 24 hours; reversed-phase HPLC or size exclusion chromatography
Experimental: Experiments for degradation of the 20K Tyr-gly-gly-phe-met-C(O)—O-mPEG conjugate (20K OGF-C(O)—O-mPEG or 20K OGF—PEG ester) and the release of OGF were conducted in human plasma at 37 ° C. The OGF—PEG conjugate containing hydrolysable ester linkages was incubated in human plasma at 37° C. for various periods of time, ranging from 0.5 to 24 hours. An aliquot plasma sample was withdrawn and treated with acetonitrile or acetonitrile/methanol organic solvent, vortexed, centrifuged, and concentrated. The solution residue was then analyzed by reversed-phase HPLC chromatography or size exclusion chromatography to check the amount of OGF-PEG and the released amount of OGF at various time points. The plasma T1/2 for 20K OGF-C(O)—O-mPEG was about 5 hours.

20K Tyr-Gly-Gly-Phe-Met-C(O)O-mPEG [20K OGF-C(O)—O-mPEG]
plasma T1/2: about 5 hours
